# Measured values reported in patent publication US20260103496A1, “NEUREGULIN AND USE THEREOF” (ZENSUN (SHANGHAI) SCIENCE & TECHNOLOGY, CO., LTD., priority 2022, published 2026).
# Several values for one entry are separate records, joined by “and”; a condition that tells them apart may be missing. Identical values can stand only once.
# B1: Neuregulin: 61 amino acids constitute EGF-like functional domain of Neuegulin-1β2 isomer, molecular weight 7054 Dal; SEQ ID NO: 1 (protein)
# chain: SHLVKCAEKEKTFCVNGGECFMVKDLSNPSRYLCKCPNEFTGDRCQNYVMASFYKAEELYQ
# Test system: subjects with chronic systolic heart failure
# Assay: Phase III clinical trial of recombinant human neuregulin for injection on cardiac function (LVESVI/LVEDVI), with enriched-subgroup analyses
# Assay type: in vivo
# Settings: for average improvement in LVEDVI from baseline, enriched population compared with overall (general) population / average improvement in LVESVI from baseline, enriched population compared with overall (general) population: Day 30 after the administration
# Description: Example 1: A Multi-Center, Randomized, Double-Blind, Placebo-Controlled and Standard Treatment-Based Phase III Clinical Trial to Evaluate the Effect of Recombinant Human Neuregulin for Injection on Cardiac Function of Subjects with Chronic Systolic Heart Failure
# In this example, a multi-center, randomized, double-blind, placebo-controlled study was conducted based on standard treatment to evaluate the effects of recombinant human neuregulin for injection on the cardiac function of male patients with NT-proBNP ≤1700 pg/ml and female patients with NT-proBNP ≤4000 pg/ml, and to confirm its efficacy and safety.
# A multicenter, randomized, double-blind, placebo-controlled study was conducted based on standard treatment.
# Experimental group: recombinant human neuregulin for injection+standard basic treatment drugs (β receptor blocker, ACEI/ARB/ARNI, aldosterone receptor antagonist, etc.).
# • 2.1 Age is 18-75 years old, regardless of gender; • 2.2 heart failure has been definitely diagnosed for 3 months or more, and the condition is stable at present, with NYHA II-III grade and left ventricular ejection fraction (LVEF)≤40%; • 2.3 male Nt-proBNP ≤1700 pg/ml, female Nt-proBNP ≤4000 pg/ml; • 2.4 After receiving standard basic treatment drugs for heart failure for 3 months, the target dose or maximum tolerated dose has been reached for more than 1 month, or the dose has not been changed within 1 month; • 2.5 Understand and sign the informed consent form.
# Specification: Neucardin, 61 amino acids constitute EGF-like functional domain of Neuegulin-1β2 isomer, with molecular weight of 7054 Dal (1 μg=0.14 nmol); 250 μg/piece. • Dosage Form: Powder Injection • Administration Route: Intravenous Drip • Appearance: freeze-dried block or powder.
# 5. Data Collection: Evaluating the Effectiveness and Safety During the Screening Period, 30 Days and 90 Days after Administration.
# This example was carried out in many clinical research centers in China at the same time. 154 cases were actually enrolled, 78 cases in the Neuregulin experimental group and 76 cases in the placebo group. A total of 147 cases (73 cases in the experimental group and 74 cases in the placebo group) finally achieved the main end points.
# Through statistical analysis of the experimental results from Example 1, the inventors investigated, in this Example, the response rate of Neuregulin in improving LVESVI (by more than 13 mL/m^2) in an enriched population. The enriched population refers to patients with a baseline LVESVI ≥135 mL/m^2, accounting for approximately 41% of the total studied population.
# Through statistical analysis of the results from Example 1, the inventors investigated, in this Example, the response rate of Neuregulin in improving both LVESVI and LVEDVI (both exceeding 20 mL/m^2) in individual patients of the enriched population.
# [1] = 30 days after administration, P<0.05 vs placebo
# [2] = baseline LVESVI ≥135 mL/m^2, listed as neuregulin
# [3] = enriched population, baseline LVESVI ≥135 mL/m^2
# [4] = individual subject, Day 30 vs baseline, FAS
molecule,measurement,setting,value
B1,patients with LVESVI reduction,"30-day data, compared with baseline",63%
same,ΔLVESVI,30 D,−5.62 ± 18.99 ml/m^2
same,ΔLVESVI,"90 D, P=0.0128",−5.23 ± 17.12 ml/m^2
same,improvement rate: LVESVI decreased by ≥5 ml/m^2 compared with the baseline,30 days after administration,45.2%
same,improvement rate: LVESVI decreased by ≥10 ml/m^2 compared with the baseline,30 days after administration,34.2%
same,improvement rate: LVESVI decreased by ≥15 ml/m^2 compared with the baseline,30 days after administration,23.3%
same,improvement rate: LVESVI decreased by ≥30 ml/m^2 compared with the baseline,30 days after administration,8.2%
same,improvement rate: LVESVI decreased by ≥35 ml/m^2 compared with the baseline,30 days after administration,5.5%
same,improvement rate: LVESVI decreased by ≥40 ml/m^2 compared with the baseline,30 days after administration,2.7%
same,improvement rate: LVESVI decreased by ≥20 ml/m^2 compared with the baseline,[1],17.8%
same,improvement rate: LVESVI decreased by ≥25 ml/m^2 compared with the baseline,[1],15.1%
same,"Increase in LVEDVI at Day 30 compared with the baseline was more than or equal to 5 ml/m^2, n/N(%)","Day 30, FAS",19/73(26.0) %
same,"Increase in LVEDVI at Day 30 compared with the baseline was more than or equal to 10 ml/m^2, n/N(%)","Day 30, FAS",14/73(19.2) %
same,"Increase in LVEDVI at Day 30 compared with the baseline was more than or equal to 15 ml/m^2, n/N(%)","Day 30, FAS",9/73(12.3) %
same,"Increase in LVEDVI at Day 30 compared with the baseline was more than or equal to 20 ml/m^2, n/N(%)","Day 30, FAS",3/73(4.1) %
same,"Increase in LVEDVI at Day 30 compared with the baseline was more than or equal to 25 ml/m^2, n/N(%)","Day 30, FAS",3/73(4.1) %
same,"Increase in LVEDVI at Day 30 compared with the baseline was more than or equal to 30 ml/m^2, n/N(%)","Day 30, FAS",1/73(1.4) %
same,"Increase in LVESVI at Day 30 compared with the baseline was more than or equal to 5 ml/m^2, n/N(%)","Day 30, FAS",15/73(20.5) %
same,"Increase in LVESVI at Day 30 compared with the baseline was more than or equal to 10 ml/m^2, n/N(%)","Day 30, FAS",10/73(13.7) %
same,"Increase in LVESVI at Day 30 compared with the baseline was more than or equal to 15 ml/m^2, n/N(%)","Day 30, FAS",5/73(6.8) %
same,"Increase in LVESVI at Day 30 compared with the baseline was more than or equal to 20 ml/m^2, n/N(%)","Day 30, FAS",3/73(4.1) %
same,"Increase in LVESVI at Day 30 compared with the baseline was more than or equal to 25 ml/m^2, n/N(%)","Day 30, FAS",1/73(1.4) %
same,"Increase in LVESVI at Day 30 compared with the baseline was more than or equal to 30 ml/m^2, n/N(%)","Day 30, FAS",1/73(1.4) %
same,"Reduction in LVEDVI at Day 30 compared with the baseline was more than or equal to 5 ml/m^2, n/N(%)","Day 30, FAS",43.8% and 32/73(43.8) %
same,"Reduction in LVEDVI at Day 30 compared with the baseline was more than or equal to 10 ml/m^2, n/N(%)","Day 30, FAS",30.1% and 22/73(30.1) %
same,"Reduction in LVEDVI at Day 30 compared with the baseline was more than or equal to 15 ml/m^2, n/N(%)","Day 30, FAS",21.9% and 16/73(21.9) %
same,"Reduction in LVEDVI at Day 30 compared with the baseline was more than or equal to 20 ml/m^2, n/N(%)","Day 30, FAS",17.8% and 13/73(17.8) %
same,"Reduction in LVEDVI at Day 30 compared with the baseline was more than or equal to 25 ml/m^2, n/N(%)","Day 30, FAS",16.4% and 12/73(16.4) %
same,"Reduction in LVEDVI at Day 30 compared with the baseline was more than or equal to 35 ml/m^2, n/N(%)","Day 30, FAS",6.8% and 5/73(6.8) %
same,"Reduction in LVEDVI at Day 30 compared with the baseline was more than or equal to 40 ml/m^2, n/N(%)","Day 30, FAS",5.5% and 4/73(5.5) %
same,"Reduction in LVEDVI at Day 30 compared with the baseline was more than or equal to 30 ml/m^2, n/N(%)","Day 30, FAS, P value of 0.046 vs placebo",13.7% and 10/73(13.7) %
same,LVESVI improved compared with that before administration,"Day 30 after administration, P=0.0137",5.62 ml/m^2
same,"average improvement in LVEDVI from baseline, enriched population compared with overall (general) population",baseline LVESVI ≥135 mL/m^2,greater average improvement in LVEDVI
same,"average improvement in LVESVI from baseline, enriched population compared with overall (general) population",baseline LVESVI ≥135 mL/m^2,greater average improvement in LVESVI
same,"average improvement in LVEDVI from baseline, enriched population compared with overall (general) population",[2],better average improvements in LVESVI or LVEDVI than the neuregulin treatment group in the general population
same,"average improvement in LVESVI from baseline, enriched population compared with overall (general) population",[2],better average improvements in LVESVI or LVEDVI than the neuregulin treatment group in the general population
same,"LVESVI and LVEDVI: Simultaneous increase by more than or equal to 5 ml/m^2, n/N(%)","Day 30 vs baseline, FAS",13/73(17.8) %
same,"LVESVI and LVEDVI: Simultaneous increase by more than or equal to 10 ml/m^2, n/N(%)","Day 30 vs baseline, FAS",9/73(12.3) %
same,"LVESVI and LVEDVI: Simultaneous increase by more than or equal to 15 ml/m^2, n/N(%)","Day 30 vs baseline, FAS",3/73(4.1) %
same,"LVESVI and LVEDVI: Simultaneous increase by more than or equal to 20 ml/m^2, n/N(%)","Day 30 vs baseline, FAS",2/73(2.7) %
same,"LVESVI and LVEDVI: Simultaneous increase by more than or equal to 25 ml/m^2, n/N(%)","Day 30 vs baseline, FAS",1/73(1.4) %
same,"LVESVI and LVEDVI: Simultaneous increase by more than or equal to 30 ml/m^2, n/N(%)","Day 30 vs baseline, FAS",1/73(1.4) %
same,persistence of the LVESVI improvement effect,"after 10-day administration, P=0.0128 at Day 90",could be maintained until Day 90 after the administration
same,response rate for a substantial improvement in LVESVI (a reduction of more than 13 mL/m^2),[3],50%
same,"response rate for both LVESVI and LVEDVI decreased by more than 20 mL/m^2, compared with placebo group",[3],significantly higher than that in the placebo group
same,"response rate for both LVESVI and LVEDVI reduced by ≥20 mL/m^2, enriched population compared with overall (general) population",[3],higher than that in the overall population
same,response rate for simultaneous improvements in both LVESVI and LVEDVI greater than 20 mL/m^2,"enriched population, baseline LVESVI ≥135 mL/m^2, individual subjects",26.5%
same,"response rate for both LVESVI and LVEDVI reduced by ≥20 mL/m^2, enriched population compared with overall (general) population","enriched population, baseline LVESVI ≥135 mL/m^2, listed as neuregulin",better response rate
same,"LVESVI and LVEDVI: Simultaneous reduction by more than or equal to 5 ml/m^2, n/N(%)",[4],37.0% and 27/73(37.0) %
same,"LVESVI and LVEDVI: Simultaneous reduction by more than or equal to 10 ml/m^2, n/N(%)",[4],23.3% and 17/73(23.3) %
same,"LVESVI and LVEDVI: Simultaneous reduction by more than or equal to 15 ml/m^2, n/N(%)",[4],19.2% and 14/73(19.2) %
same,"LVESVI and LVEDVI: Simultaneous reduction by more than or equal to 25 ml/m^2, n/N(%)",[4],12.3% and 9/73(12.3) %
same,"LVESVI and LVEDVI: Simultaneous reduction by more than or equal to 30 ml/m^2, n/N(%)",[4],6.8% and 5/73(6.8) %
same,"LVESVI and LVEDVI: Simultaneous reduction by more than or equal to 35 ml/m^2, n/N(%)",[4],4.1% and 3/73(4.1) %
same,"LVESVI and LVEDVI: Simultaneous reduction by more than or equal to 40 ml/m^2, n/N(%)",[4],1.4% and 1/73(1.4) %
same,"LVESVI and LVEDVI: Simultaneous reduction by more than or equal to 20 ml/m^2, n/N(%)","individual subject, Day 30 vs baseline, FAS, p-value 0.0048 vs placebo",16.4% and 12/73(16.4) %
